± gives the standard deviation of the averaged measurements.
test system: ATP; test: switch fluorescence ratio, 500 uM ATP over buffer (Cy3 cluster intensity, sum of 5 cycles each) (fold (ratio)); higher = stronger signal-on switching upon ATP binding; sequences stand for … in TCGTCGGCAGCGTCAGATGTGTATAAGAGACAGTTTTTTTTTTTTTTTTTTTTTTTTT…TC; details: aptamer strand: ATP DNA aptamer (quencher-CACCTGGGGGAGTATTGCGGAGGAAGG + anchor), 100 nM annealed; ATP concentration: 500 uM
Outline: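 The fluorescence ratio divides summed target-cycle Cy3 intensity by summed buffer-cycle Cy3 intensity for each cluster and is averaged per switch-domain sequence. Cy3-labelled switching-strand clusters on a modified Illumina MiSeq flow-cell were annealed to 100 nM quencher-labelled ATP aptamer, then imaged in selection buffer and again after 15 min with 500 uM ATP at 22 °C. Five such cycles were run, with NaOH stripping and re-annealing between them, and clusters outside 100-1000 RFU were excluded.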
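Further: ATP exposure 15 min at 22 °C before imaging.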

Sequence | switch fluorescence ratio
GGATAGGGTG | 1.06 ± 0.076
GGATATAAGT | 1.01 ± 0.035
GGATCAATGT | 0.998 ± 0.02
GGATCATTCG | 1.02 ± 0.048
GGATCATTTA | 1.03 ± 0.042
GGATCCAGTA | 1.02 ± 0.045
GGATCCATAC | 1.01 ± 0.014
GGATCCGGGA | 1.0104 ± 2.5e-05
GGATCCTGTT | 1.01 ± 0.027
GGATCGCGAG | 0.9797 ± 0.0074
GGATCTTGGG | 1.0038 ± 0.00073
GGATGAATGG | 1.03 ± 0.043
GGATGAGGGT | 0.986 ± 0.018
GGATGCAAGT | 0.998 ± 0.039
GGATGCAGC | 0.992 ± 0.024
GGATGCAGGG | 0.999 ± 0.012
GGATGCGTG | 0.985 ± 0.059
GGATGGATGA | 1.07 ± 0.073
GGATGGCATG | 0.979 ± 0.039
GGATGGCGGA | 0.997 ± 0.024
GGATGGGTTG | 1.09 ± 0.19
GGATGGTGCT | 0.948 ± 0.027
GGATGGTTCA | 1.05 ± 0.072
GGATGGTTTC | 1.01 ± 0.023
GGATGTAGCG | 0.985 ± 0.051

Sequence | switch fluorescence ratio
GGATGTCAGG | 1 ± 0.045
GGATGTGAAG | 0.9818 ± 0.0027
GGATGTTATG | 1.016 ± 0.0078
GGATTAAGCT | 1.015 ± 0.0043
GGATTAGCTG | 1.01 ± 0.049
GGATTAGG | 0.99 ± 0.025
GGATTAGGTT | 1.01 ± 0.011
GGATTATCTC | 1.015 ± 0.0044
GGATTATTAG | 0.965 ± 0.016
GGATTCAGCA | 1.01 ± 0.022
GGATTCATTT | 1.054 ± 0.0087
GGATTCTTAG | 0.986 ± 0.049
GGATTGAATC | 1 ± 0.015
GGATTGAGGG | 0.968 ± 0.021
GGATTGCAAG | 0.998 ± 0.013
GGATTGCTCG | 1.03 ± 0.029
GGATTGGATT | 1 ± 0.022
GGATTGGCGT | 1 ± 0.044
GGATTGGTCC | 1.14 ± 0.16
GGATTGGTTT | 0.983 ± 0.03
GGATTGTCAG | 0.9847 ± 0.0024
GGATTTGAAT | 1.03 ± 0.031
GGATTTGGG | 0.964 ± 0.014
GGATTTTAAA | 1 ± 0.022
GGATTTTTAG | 0.99134 ± 0.00052

Sequence | switch fluorescence ratio
GGATTTTTTA | 1.006 ± 1.6e-05
GGCAATATAG | 1.141 ± 0.006
GGCAATGAAA | 0.999 ± 0.019
GGCAATTCAG | 1.07 ± 0.019
GGCACAAAAG | 0.983 ± 0.019
GGCACATAAG | 1.012 ± 0.0033
GGCACATGGG | 1.01 ± 0.028
GGCACCTGGG | 1.02 ± 0.016
GGCACGTATA | 1.17 ± 0.014
GGCACTATAT | 1.04 ± 0.023
GGCACTTCGG | 0.99 ± 0.014
GGCAGAGGAG | 1.01 ± 0.0063
GGCAGCCTTT | 1.0169 ± 0.00028
GGCAGCTGGA | 0.9578 ± 0.0072
GGCAGGGGGC | 1.02 ± 0.031
GGCAGGGGTA | 0.995 ± 0.028
GGCAGGGGTG | 1.11 ± 0.015
GGCAGGTTTT | 0.996 ± 0.035
GGCAGTACGT | 1.27 ± 0.066
GGCAGTCACG | 1.02 ± 0.014
GGCATAAGTG | 1.016 ± 0.0087
GGCATATGCG | 1.013 ± 0.0068
GGCATCGCGA | 1.1 ± 0.064
GGCATGGGGG | 0.984 ± 0.017
GGCATGGGTT | 1 ± 0.019

Sequence | switch fluorescence ratio
GGCATTACTA | 1.21 ± 0.022
GGCATTAGTT | 0.992 ± 0.043
GGCATTGGGT | 1.0068 ± 0.00028
GGCCACGTAG | 1.02 ± 0.022
GGCCATATGT | 1.02 ± 0.016
GGCCCCGTTT | 1.04 ± 0.18
GGCCCGGACT | 1.04 ± 0.013
GGCCCTGGGA | 1.02 ± 0.029
GGCCGAAGCG | 1.07 ± 0.049
GGCCGATATG | 0.996 ± 0.015
GGCCGGCCAG | 1.01 ± 0.047
GGCCGTAGCG | 0.986 ± 0.025
GGCCGTGTGG | 0.998 ± 0.023
GGCCTAGGCT | 1.02 ± 0.013
GGCCTCCGGT | 1.09 ± 0.018
GGCCTGGCTA | 0.974 ± 0.02
GGCCTGGGGG | 1 ± 0.019
GGCCTTGTCG | 1.06 ± 0.046
GGCCTTGTG | 0.962 ± 0.035
GGCCTTTGCT | 1.02 ± 0.041
GGCGACAGAG | 1.04 ± 0.051
GGCGAGAGGG | 0.979 ± 0.042
GGCGATCACG | 0.9834 ± 0.006
GGCGCACTAT | 1.22 ± 0.051
GGCGCACTGT | 1.02 ± 0.021

Sequence | switch fluorescence ratio
GGCGCCATGA | 1.034 ± 0.0036
GGCGCCATGG | 0.986 ± 0.055
GGCGCCTGGG | 0.9875 ± 0.0033
GGCGCGGGGG | 1.03 ± 0.023
GGCGCTTGGG | 0.986 ± 0.022
GGCGCTTTTC | 1 ± 0.058
GGCGGAACTA | 1.01 ± 0.018
GGCGGAAGTA | 1 ± 0.019
GGCGGAGAGA | 1.03 ± 0.07
GGCGGAGGGA | 0.99 ± 0.011
GGCGGATAAG | 0.979 ± 0.013
GGCGGATATG | 1.009 ± 0.0097
GGCGGATCGA | 0.998 ± 0.063
GGCGGGGCAC | 0.989 ± 0.038
GGCGGGGGGA | 1.01 ± 0.032
GGCGGGGGTT | 1.03 ± 0.017
GGCGGGTCGG | 0.972 ± 0.029
GGCGTAAGTG | 0.953 ± 0.027
GGCGTATTGG | 0.988 ± 0.027
GGCGTCGACG | 1.02 ± 0.11
GGCGTGTGGT | 0.991 ± 0.066
GGCGTTTTGA | 1.04 ± 0.021
GGCGTTTTGG | 0.982 ± 0.026
GGCTAAAATT | 0.999 ± 0.042
GGCTAAACG | 1.05 ± 0.011

Sequence | switch fluorescence ratio
GGCTAAGGAT | 1 ± 0.018
GGCTAAGGGT | 0.995 ± 0.013
GGCTAGCTAC | 1.09 ± 0.012
GGCTATCGGT | 0.978 ± 0.035
GGCTATGGTG | 1.004 ± 0.01
GGCTATTATT | 0.985 ± 0.025
GGCTATTCCT | 1.01 ± 0.0012
GGCTATTTTC | 0.991 ± 0.051
GGCTCAACGA | 1.01 ± 0.045
GGCTCAGCGG | 1.03 ± 0.07
GGCTCAGGCA | 1.04 ± 0.023
GGCTCTGCTA | 1.11 ± 0.047
GGCTGAGGCA | 1.01 ± 0.029
GGCTGATTTG | 0.961 ± 0.027
GGCTGGATTT | 0.98525 ± 0.00086
GGCTGGCCAT | 1.01 ± 0.025
GGCTGGCGGC | 0.984 ± 0.026
GGCTGGGTGG | 1.01 ± 0.053
GGCTGGGTTT | 1.02 ± 0.026
GGCTGGTATA | 0.987 ± 0.031
GGCTTAGACG | 0.959 ± 0.063
GGCTTAGAGT | 0.971 ± 0.011
GGCTTAGCAT | 1.02 ± 0.037
GGCTTCGGGA | 1.01 ± 0.054
GGCTTGCGTA | 0.9512 ± 0.0029

Sequence | switch fluorescence ratio
GGCTTGCTTT | 1.01 ± 0.021
GGCTTGGTTA | 1.02 ± 0.015
GGCTTTAGTA | 1.02 ± 0.027
GGCTTTATGG | 0.977 ± 0.024
GGCTTTGTAG | 0.9956 ± 0.0081
GGCTTTTGCT | 0.9978 ± 0.0038
GGCTTTTGTA | 0.972 ± 0.019
GGGAAAAAGC | 0.993 ± 0.04
GGGAAAAGAT | 0.978 ± 0.042
GGGAAAATAT | 0.999 ± 0.063
GGGAAAATTC | 1.06 ± 0.089
GGGAAACATG | 0.979 ± 0.028
GGGAAACTGA | 1.04 ± 0.0027
GGGAAAGAGG | 0.991 ± 0.048
GGGAAAGGCG | 0.983 ± 0.042
GGGAAAGGGA | 0.978 ± 0.022
GGGAAATAGA | 1.004 ± 0.0088
GGGAAATCAG | 0.9838 ± 0.0076
GGGAAATGCG | 0.9983 ± 0.0053
GGGAAATTTT | 0.987 ± 0.021
GGGAACCAAG | 0.997 ± 0.026
GGGAACGAGG | 1.02 ± 0.019
GGGAACGGGT | 1 ± 0.035
GGGAACGTTA | 1.05 ± 0.035
GGGAAGAAGT | 1.011 ± 0.0084

Sequence | switch fluorescence ratio
GGGAAGACGC | 0.978 ± 0.025
GGGAAGAGTT | 0.994 ± 0.012
GGGAAGATTT | 0.992 ± 0.036
GGGAAGCGTT | 0.997 ± 0.012
GGGAAGCTTA | 1.008 ± 0.0042
GGGAAGGGTT | 0.998 ± 0.029
GGGAATAACG | 0.972 ± 0.058
GGGAATATTT | 0.995 ± 0.0097
GGGAATCCGG | 1.02 ± 0.013
GGGAATCGTC | 0.987 ± 0.04
GGGAATGCGG | 0.99 ± 0.03
GGGAATGCTT | 1.016 ± 0.0054
GGGAATGGAG | 0.976 ± 0.029
GGGAATTAGG | 1 ± 0.021
GGGACAGGGG | 1.21 ± 0.35
GGGACATGTA | 0.98 ± 0.022
GGGACCAGAT | 1.01 ± 0.033
GGGACCGGTG | 1.03 ± 0.02
GGGACGAGGG | 1.03 ± 0.035
GGGACGGGTA | 1.008 ± 0.0015
GGGACGTCGT | 1.04 ± 0.042
GGGAGAACG | 0.98 ± 0.017
GGGAGAGAGG | 0.984 ± 0.011
GGGAGAGGGA | 0.978 ± 0.021
GGGAGAGGTT | 0.987 ± 0.032
